Key:
[1] = biological target: T1, Galectin-10 protein with His tag (expressed and purified with pk277) (Homo sapiens (Human)) (UniProt Q05315); assay: ELISA, His-tagged Galectin-10 coated at 125 ng/mL, 254# diluted 1:200, anti-GST mouse antibody and HRP goat anti-mouse, repeat 2
T1 sequence: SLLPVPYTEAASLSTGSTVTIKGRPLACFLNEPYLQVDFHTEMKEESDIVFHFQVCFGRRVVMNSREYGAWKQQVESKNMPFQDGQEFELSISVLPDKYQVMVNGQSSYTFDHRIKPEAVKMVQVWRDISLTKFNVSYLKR

[2] = biological target: T1, Galectin-10 protein with His tag (expressed and purified with pk277) (Homo sapiens (Human)); assay: ELISA, His-tagged Galectin-10 coated at 2500 ng/mL, 254# diluted 1:200, anti-GST mouse antibody and HRP goat anti-mouse, repeat 2
[3] = biological target: T1, Galectin-10 protein with His tag (expressed and purified with pk277) (Homo sapiens (Human)); assay: ELISA, His-tagged Galectin-10 coated at 500 ng/mL, 254# diluted 1:200, anti-GST mouse antibody and HRP goat anti-mouse, repeat 3
[4] = biological target: T1, Galectin-10 protein with His tag (expressed and purified with pk277) (Homo sapiens (Human)); assay: ELISA on coated His-tagged Galectin-10, anti-GST detection
[5] = biological target: T1, Galectin-10 protein with His tag (expressed and purified with pk277) (Homo sapiens (Human)); assay: ELISA, His-tagged Galectin-10 coated at 500 ng/mL, 254# diluted 1:200, anti-GST mouse antibody and HRP goat anti-mouse, repeat 2
[6] = biological target: T1, Galectin-10 protein with His tag (expressed and purified with pk277) (Homo sapiens (Human)); assay: ELISA, His-tagged Galectin-10 coated at 125 ng/mL, 254# diluted 1:200, anti-GST mouse antibody and HRP goat anti-mouse, repeat 1
[7] = biological target: T1, Galectin-10 protein with His tag (expressed and purified with pk277) (Homo sapiens (Human)); assay: ELISA, His-tagged Galectin-10 coated at 500 ng/mL, 254# diluted 1:200, anti-GST mouse antibody and HRP goat anti-mouse, average
[8] = biological target: T1, Galectin-10 protein with His tag (expressed and purified with pk277) (Homo sapiens (Human)); assay: ELISA, His-tagged Galectin-10 coated at 500 ng/mL, 254# diluted 1:200, anti-GST mouse antibody and HRP goat anti-mouse, repeat 1
[9] = biological target: T1, Galectin-10 protein with His tag (expressed and purified with pk277) (Homo sapiens (Human)); assay: ELISA, His-tagged Galectin-10 coated at 2500 ng/mL, 254# diluted 1:200, anti-GST mouse antibody and HRP goat anti-mouse, average
[10] = biological target: T1, Galectin-10 protein with His tag (expressed and purified with pk277) (Homo sapiens (Human)); assay: ELISA, His-tagged Galectin-10 coated at 2500 ng/mL, 254# diluted 1:200, anti-GST mouse antibody and HRP goat anti-mouse, repeat 1
[11] = biological target: T1, Galectin-10 protein with His tag (expressed and purified with pk277) (Homo sapiens (Human)); assay: ELISA, His-tagged Galectin-10 coated at 125 ng/mL, 254# diluted 1:200, anti-GST mouse antibody and HRP goat anti-mouse, repeat 3
[12] = biological target: T1, Galectin-10 protein with His tag (expressed and purified with pk277) (Homo sapiens (Human)); assay: ELISA, His-tagged Galectin-10 coated at 2500 ng/mL, 254# diluted 1:200, anti-GST mouse antibody and HRP goat anti-mouse, repeat 3
[13] = biological target: T1, Galectin-10 protein with His tag (expressed and purified with pk277) (Homo sapiens (Human)); assay: ELISA, His-tagged Galectin-10 coated at 125 ng/mL, 254# diluted 1:200, anti-GST mouse antibody and HRP goat anti-mouse, average
[14] = biological target: T1, Galectin-10 protein with His tag (expressed and purified with pk277) (Homo sapiens (Human)); assay: ELISA, His-tagged Galectin-10 coated at 2500 ng/mL, 225# diluted 1:200, anti-GST mouse antibody and HRP goat anti-mouse, average
[15] = biological target: T1, Galectin-10 protein with His tag (expressed and purified with pk277) (Homo sapiens (Human)); assay: ELISA, His-tagged Galectin-10 coated at 125 ng/mL, 225# diluted 1:200, anti-GST mouse antibody and HRP goat anti-mouse, repeat 2
[16] = biological target: T1, Galectin-10 protein with His tag (expressed and purified with pk277) (Homo sapiens (Human)); assay: ELISA, His-tagged Galectin-10 coated at 125 ng/mL, 225# diluted 1:200, anti-GST mouse antibody and HRP goat anti-mouse, repeat 1
[17] = biological target: T1, Galectin-10 protein with His tag (expressed and purified with pk277) (Homo sapiens (Human)); assay: ELISA, His-tagged Galectin-10 coated at 500 ng/mL, 225# diluted 1:200, anti-GST mouse antibody and HRP goat anti-mouse, repeat 3
[18] = biological target: T1, Galectin-10 protein with His tag (expressed and purified with pk277) (Homo sapiens (Human)); assay: ELISA, His-tagged Galectin-10 coated at 125 ng/mL, 225# diluted 1:200, anti-GST mouse antibody and HRP goat anti-mouse, repeat 3
[19] = biological target: T1, Galectin-10 protein with His tag (expressed and purified with pk277) (Homo sapiens (Human)); assay: ELISA, His-tagged Galectin-10 coated at 500 ng/mL, 225# diluted 1:200, anti-GST mouse antibody and HRP goat anti-mouse, repeat 1
[20] = biological target: T1, Galectin-10 protein with His tag (expressed and purified with pk277) (Homo sapiens (Human)); assay: ELISA, His-tagged Galectin-10 coated at 125 ng/mL, 225# diluted 1:200, anti-GST mouse antibody and HRP goat anti-mouse, average
[21] = biological target: T1, Galectin-10 protein with His tag (expressed and purified with pk277) (Homo sapiens (Human)); assay: ELISA, His-tagged Galectin-10 coated at 2500 ng/mL, 225# diluted 1:200, anti-GST mouse antibody and HRP goat anti-mouse, repeat 2
[22] = biological target: T1, Galectin-10 protein with His tag (expressed and purified with pk277) (Homo sapiens (Human)); assay: ELISA, His-tagged Galectin-10 coated at 2500 ng/mL, 225# diluted 1:200, anti-GST mouse antibody and HRP goat anti-mouse, repeat 1
[23] = biological target: T1, Galectin-10 protein with His tag (expressed and purified with pk277) (Homo sapiens (Human)); assay: ELISA, His-tagged Galectin-10 coated at 2500 ng/mL, 225# diluted 1:200, anti-GST mouse antibody and HRP goat anti-mouse, repeat 3
[24] = biological target: T1, Galectin-10 protein with His tag (expressed and purified with pk277) (Homo sapiens (Human)); assay: ELISA, His-tagged Galectin-10 coated at 500 ng/mL, 225# diluted 1:200, anti-GST mouse antibody and HRP goat anti-mouse, average
[25] = biological target: T1, Galectin-10 protein with His tag (expressed and purified with pk277) (Homo sapiens (Human)); assay: ELISA, His-tagged Galectin-10 coated at 500 ng/mL, 225# diluted 1:200, anti-GST mouse antibody and HRP goat anti-mouse, repeat 2

B1: 254# nano antibody (SEQ ID NO: 3) (VHH, not shown: a dimerising Fc or GST; small tags and cut ends)
VHH: EVQLQASGGGFVQPGGSLRLSCAASGFTFSSFAMGWFRQAPGKEREFVSAISSGGGNTYYADSVKGRFTISRDNSKNTVYLQMNSLRAEDTATYYCVTPGGRLWYYRYDYRCQGTQVTVSS
Work on B1 yielded an OD at 450 nm [1] of 0.353 OD450, an OD at 450 nm [2] of 1.2 OD450 and an OD at 450 nm [3] of 0.577 OD450. The minimum test concentration [4] was 125 ng/mL, the OD at 450 nm [5] was 0.551 OD450 and the OD at 450 nm [6] was 0.397 OD450. It also gave an OD at 450 nm [7] of 0.581 OD450, an OD at 450 nm [8] of 0.615 OD450 and an OD at 450 nm [9] of 1.28 OD450. It also gave an OD at 450 nm [10] of 1.32 OD450, an OD at 450 nm [11] of 0.37 OD450 and an OD at 450 nm [12] of 1.34 OD450. For the same binder, the OD at 450 nm [13] was 0.373 OD450.

B2: 225# nano antibody (SEQ ID NO: 4) (VHH, not shown: a dimerising Fc or GST; small tags and cut ends)
VHH: EVQLQASGGGFVQPGGSLRLSCAASGFTFSSYAMGWFRQAPGKERELVSAISSGGGNTYYADSVKGRFTISRDNSKNTVYLQMNSLRAEDTATYYCVTPGGRLWYYRYDYRCQGTQVTVSS
Binder B2 has an OD at 450 nm [14] of 0.707 OD450, an OD at 450 nm [15] of 0.153 OD450 and a minimum test concentration [4] of 125 ng/mL. It also gave an OD at 450 nm [16] of 0.155 OD450, an OD at 450 nm [17] of 0.279 OD450 and an OD at 450 nm [18] of 0.173 OD450. The OD at 450 nm [19] was 0.257 OD450, the OD at 450 nm [20] was 0.16 OD450 and the OD at 450 nm [21] was 0.7 OD450. It also gave an OD at 450 nm [22] of 0.74 OD450, an OD at 450 nm [23] of 0.681 OD450 and an OD at 450 nm [24] of 0.265 OD450. It also gave an OD at 450 nm [25] of 0.26 OD450.

Reference: patent US20230192865A1
